Values of other authors as cited in patent US20260009081A1, “CLONAL HEMATOPOIESIS AND CYTOKINE TARGETS” (TRUSTEES OF BOSTON UNIVERSITY, priority 2018, published 2026).

Target: T1, IL-1β (Homo sapiens, UniProt P01584)
T1 construct: endogenous in cells; host or cells: CANTOS trial patients (endogenous cytokine)

canakinumab: IL-1β neutralizing antibody; interleukin 1 beta monoclonal antibody
side effect of therapy (patients): infection side effect
major adverse cardiovascular events (patients with stable coronary artery disease and elevated C-reactive protein): can reduce major adverse cardiovascular events
